Data on three compounds can be found in publication PMC8202955, “The nonreceptor tyrosine kinase SRMS inhibits autophagy and promotes tumor growth by phosphorylating the scaffolding protein FKBP51” (PLoS Biology, 2021).

The conditions of data set [1]: phosphorylation at Y54.
Data set [2] deals with T1, SRMS (Src-related kinase lacking C-terminal regulatory tyrosine and N-terminal myristylation sites) (Homo sapiens, UniProt Q9H3Y6).
T1 construct: human SRMS kinase domain (residues 221 to 486)
Nature of the data set: peptide substrate mobility shift kinase assay with purified recombinant kinase domain ([…] SRMS, […] ATP). The data set is classed as biochemical.

T1 sequence (Q9H3Y6 221-486): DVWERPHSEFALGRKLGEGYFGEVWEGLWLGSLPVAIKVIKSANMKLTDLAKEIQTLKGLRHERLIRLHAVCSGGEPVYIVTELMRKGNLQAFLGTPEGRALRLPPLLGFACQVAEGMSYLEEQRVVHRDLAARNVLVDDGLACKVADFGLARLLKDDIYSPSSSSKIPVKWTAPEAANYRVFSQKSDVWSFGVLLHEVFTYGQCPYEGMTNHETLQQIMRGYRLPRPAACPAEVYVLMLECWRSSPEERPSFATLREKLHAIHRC

With FKBP51: ibrutinib (SRMS inhibitor), the degradation_or_half_life result in data set [1] is recorded as “decreases”. A word on the IC50: it is the midpoint of a concentration-inhibition curve. On to `C=CC(=O)N1CCC[C@@H](n2nc(-c3ccc(Oc4ccccc4)cc3)c3c(N)ncnc32)C1` [ibrutinib], for which the IC50 in data set [2] stood at 33 nM. With FKBP51: SRMS knockout (CRISPR/Cas9), the degradation_or_half_life entry in data set [1] was “decreases”.
